Test results as given in publication PMC9482650, “Quantitative fragmentomics allow affinity mapping of interactomes” (Nature Communications, 2022).

What was measured:
Assay in all cases: holdup assay
Parameters in all cases: key: below the threshold = too weak to quantify, mostly under pKd 3.1 to 4
Details in all cases: plain residues with an end cap or a label only (N-terminal biotin on a linker: ado-ado)
APBA1_2, Q02410 = target: T1, APBA1_2, Q02410
T1 sequence (Q02410 742-832, limits assumed, looked up): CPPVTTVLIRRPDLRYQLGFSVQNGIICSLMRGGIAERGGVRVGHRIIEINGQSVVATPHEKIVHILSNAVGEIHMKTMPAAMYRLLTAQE

APBA2_1, Q99767 = target: T2, APBA2_1, Q99767
T2 sequence (Q99767 563-664, limits assumed, looked up): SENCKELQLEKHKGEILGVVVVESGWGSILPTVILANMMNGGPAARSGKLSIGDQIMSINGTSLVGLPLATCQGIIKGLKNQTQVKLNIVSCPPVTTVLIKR

CASK, O14936 = target: CASK, O14936
Sequence of CASK, O14936 (O14936 487-570): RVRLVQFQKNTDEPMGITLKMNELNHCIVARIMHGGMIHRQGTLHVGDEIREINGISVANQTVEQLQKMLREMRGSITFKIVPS

DLG3_3, Q92796 = target: T3, DLG3_3, Q92796
T3 sequence (Q92796 374-475, limits assumed, looked up): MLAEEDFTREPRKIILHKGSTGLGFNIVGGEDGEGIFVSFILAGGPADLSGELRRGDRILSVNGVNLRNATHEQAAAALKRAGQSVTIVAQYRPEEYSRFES

FRMPD2_2, Q68DX3 = target: FRMPD2_2, Q68DX3
Sequence of FRMPD2_2, Q68DX3 (Q68DX3 944-1038): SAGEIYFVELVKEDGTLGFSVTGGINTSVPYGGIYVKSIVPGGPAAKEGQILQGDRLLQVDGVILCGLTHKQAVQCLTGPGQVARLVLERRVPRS

FRMPD2_3, Q68DX3 = target: FRMPD2_3, Q68DX3
Sequence of FRMPD2_3, Q68DX3 (Q68DX3 1073-1166): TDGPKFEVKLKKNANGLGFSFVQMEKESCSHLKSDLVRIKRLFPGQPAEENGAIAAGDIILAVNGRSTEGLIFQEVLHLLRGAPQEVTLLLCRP

GORASP1, Q9BQQ3 = target: GORASP1, Q9BQQ3
Sequence of GORASP1, Q9BQQ3 (Q9BQQ3 1-208): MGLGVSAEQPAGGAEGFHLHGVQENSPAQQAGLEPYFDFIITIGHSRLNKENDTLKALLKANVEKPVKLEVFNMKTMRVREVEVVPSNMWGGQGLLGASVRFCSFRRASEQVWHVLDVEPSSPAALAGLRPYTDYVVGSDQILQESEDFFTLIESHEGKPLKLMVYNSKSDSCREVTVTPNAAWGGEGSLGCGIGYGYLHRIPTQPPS

GRIP2_3, Q9C0E4 = target: GRIP2_3, Q9C0E4
Sequence of GRIP2_3, Q9C0E4 (Q9C0E4 238-339): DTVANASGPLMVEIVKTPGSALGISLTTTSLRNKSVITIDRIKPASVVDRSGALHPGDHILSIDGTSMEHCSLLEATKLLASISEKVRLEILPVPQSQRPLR

GRIP2_4, Q9C0E4 = target: GRIP2_4, Q9C0E4
Sequence of GRIP2_4, Q9C0E4 (Q9C0E4 446-548): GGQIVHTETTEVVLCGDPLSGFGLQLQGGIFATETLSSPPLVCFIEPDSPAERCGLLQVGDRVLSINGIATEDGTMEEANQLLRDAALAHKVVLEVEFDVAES

GRIP2_5, Q9C0E4 = target: GRIP2_5, Q9C0E4
Sequence of GRIP2_5, Q9C0E4 (Q9C0E4 544-642): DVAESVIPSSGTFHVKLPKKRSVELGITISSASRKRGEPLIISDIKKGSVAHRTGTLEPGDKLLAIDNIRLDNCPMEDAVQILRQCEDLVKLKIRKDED

GRIP2_6, Q9C0E4 = target: GRIP2_6, Q9C0E4
Sequence of GRIP2_6, Q9C0E4 (Q9C0E4 648-740): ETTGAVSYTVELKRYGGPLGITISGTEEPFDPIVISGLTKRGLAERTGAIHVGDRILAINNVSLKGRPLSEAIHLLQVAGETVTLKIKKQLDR

HTRA2, O43464 = target: HTRA2, O43464
Sequence of HTRA2, O43464 (O43464 355-458): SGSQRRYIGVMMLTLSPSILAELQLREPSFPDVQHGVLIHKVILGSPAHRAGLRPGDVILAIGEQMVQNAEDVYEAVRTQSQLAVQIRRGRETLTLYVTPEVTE

Inadl_2, Q8NI35 = target: Inadl_2, Q8NI35
Sequence of Inadl_2, Q8NI35 (Q8NI35 238-335): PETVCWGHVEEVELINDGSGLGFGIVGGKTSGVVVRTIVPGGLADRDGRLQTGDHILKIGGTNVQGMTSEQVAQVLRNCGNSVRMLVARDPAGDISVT

LAP2, Q96RT1 = target: LAP2, Q96RT1
Sequence of LAP2, Q96RT1 (Q96RT1 other isoform, or with tags, fused parts or gaps): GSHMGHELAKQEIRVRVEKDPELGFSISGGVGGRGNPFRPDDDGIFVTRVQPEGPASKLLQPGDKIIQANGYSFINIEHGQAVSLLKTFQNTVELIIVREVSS

LNX1_1, Q8TBB1 = target: LNX1_1, Q8TBB1
Sequence of LNX1_1, Q8TBB1 (Q8TBB1 261-371): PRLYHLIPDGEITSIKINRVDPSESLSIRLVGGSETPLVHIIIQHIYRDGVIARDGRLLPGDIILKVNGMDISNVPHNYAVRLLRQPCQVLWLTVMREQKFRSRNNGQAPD

LNX1_2, Q8TBB1 = target: LNX1_2, Q8TBB1
Sequence of LNX1_2, Q8TBB1 (Q8TBB1 371-470): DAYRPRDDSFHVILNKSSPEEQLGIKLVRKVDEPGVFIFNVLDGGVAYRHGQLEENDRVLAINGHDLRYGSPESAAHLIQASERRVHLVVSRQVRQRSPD

MAGI1_1, Q96QZ7 = target: MAGI1_1, Q96QZ7
Sequence of MAGI1_1, Q96QZ7 (Q96QZ7 1-106): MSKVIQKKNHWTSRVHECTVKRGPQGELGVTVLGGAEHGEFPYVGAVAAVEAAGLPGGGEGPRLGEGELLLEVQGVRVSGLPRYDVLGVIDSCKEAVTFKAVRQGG

MPDZ_10, O75970 = target: T4, MPDZ_10, O75970
T4 sequence (O75970 1624-1722, limits assumed, looked up): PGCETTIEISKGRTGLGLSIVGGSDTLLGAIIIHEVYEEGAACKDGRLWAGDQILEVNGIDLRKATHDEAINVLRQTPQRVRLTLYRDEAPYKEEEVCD

NHERF2_2, Q15599 = target: NHERF2_2, Q15599
Sequence of NHERF2_2, Q15599 (Q15599 142-238): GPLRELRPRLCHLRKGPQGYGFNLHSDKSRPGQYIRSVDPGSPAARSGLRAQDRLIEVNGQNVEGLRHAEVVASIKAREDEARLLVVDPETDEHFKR

NHERF3_1, Q5T2W1 = target: T5, NHERF3_1, Q5T2W1
T5 sequence (Q5T2W1 4-100, limits assumed, looked up): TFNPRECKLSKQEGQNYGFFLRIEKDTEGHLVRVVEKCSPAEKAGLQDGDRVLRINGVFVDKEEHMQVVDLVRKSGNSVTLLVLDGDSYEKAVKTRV

PARD3B_1, Q8TEW8 = target: T6, PARD3B_1, Q8TEW8
T6 sequence (Q8TEW8 196-299, limits assumed, looked up): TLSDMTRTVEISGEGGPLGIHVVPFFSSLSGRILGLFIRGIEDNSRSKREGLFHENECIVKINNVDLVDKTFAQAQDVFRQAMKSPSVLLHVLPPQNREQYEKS

PARD3_3, Q8TEW0 = target: PARD3_3, Q8TEW0
Sequence of PARD3_3, Q8TEW0 (Q8TEW0 582-685): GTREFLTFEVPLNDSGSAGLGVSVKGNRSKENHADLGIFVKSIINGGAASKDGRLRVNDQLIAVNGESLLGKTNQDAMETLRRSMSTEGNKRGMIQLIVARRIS

PDZRN3_1, Q9UPQ7 = target: T7, PDZRN3_1, Q9UPQ7
T7 sequence (Q9UPQ7 244-349, limits assumed, looked up): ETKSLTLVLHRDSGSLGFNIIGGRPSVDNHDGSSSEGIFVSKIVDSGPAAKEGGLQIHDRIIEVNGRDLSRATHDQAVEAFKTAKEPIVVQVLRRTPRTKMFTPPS

PTPN13_1, Q12923 = target: T8, PTPN13_1, Q12923
T8 sequence (Q12923 1088-1188, limits assumed, looked up): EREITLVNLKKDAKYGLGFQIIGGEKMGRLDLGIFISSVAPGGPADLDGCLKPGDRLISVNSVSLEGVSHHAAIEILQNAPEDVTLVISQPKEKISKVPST

SNTG2, Q9NY99 = target: T9, SNTG2, Q9NY99
T9 sequence (Q9NY99 68-166, limits assumed, looked up): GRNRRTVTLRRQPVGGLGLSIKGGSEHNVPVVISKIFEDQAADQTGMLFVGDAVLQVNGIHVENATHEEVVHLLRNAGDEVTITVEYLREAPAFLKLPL

TIAM2, Q8IVF5 = target: T10, TIAM2, Q8IVF5
T10 sequence (Q8IVF5 885-986, limits assumed, looked up): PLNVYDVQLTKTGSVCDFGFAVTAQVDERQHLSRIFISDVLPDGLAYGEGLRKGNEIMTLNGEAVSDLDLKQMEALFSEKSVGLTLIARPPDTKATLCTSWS

TJP1_3, Q07157 = target: TJP1_3, Q07157
Sequence of TJP1_3, Q07157 (Q07157 416-512): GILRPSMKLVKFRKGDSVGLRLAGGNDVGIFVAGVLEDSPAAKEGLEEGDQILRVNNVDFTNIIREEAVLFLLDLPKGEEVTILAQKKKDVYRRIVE

Binder | pKd (APBA1_2, Q02410) | pKd (APBA2_1, Q99767) | pKd (CASK, O14936) | pKd (DLG3_3, Q92796) | pKd (FRMPD2_2, Q68DX3) | pKd (FRMPD2_3, Q68DX3) | pKd (GORASP1, Q9BQQ3) | pKd (GRIP2_3, Q9C0E4) | pKd (GRIP2_4, Q9C0E4) | pKd (GRIP2_5, Q9C0E4) | pKd (GRIP2_6, Q9C0E4) | pKd (HTRA2, O43464) | pKd (Inadl_2, Q8NI35) | pKd (LAP2, Q96RT1) | pKd (LNX1_1, Q8TBB1) | pKd (LNX1_2, Q8TBB1) | pKd (MAGI1_1, Q96QZ7) | pKd (MPDZ_10, O75970) | pKd (NHERF2_2, Q15599) | pKd (NHERF3_1, Q5T2W1) | further results
EALLQMESVA [CAVIN3, Q969G5] | 3.5 | below the threshold | below the threshold | below the threshold | below the threshold | below the threshold | below the threshold | below the threshold | below the threshold | below the threshold | below the threshold | below the threshold | below the threshold | below the threshold | 3.81 | below the threshold | below the threshold | below the threshold | below the threshold | below the threshold | pKd (PARD3B_1, Q8TEW8): below the threshold; pKd (PARD3_3, Q8TEW0): below the threshold; pKd (PDZRN3_1, Q9UPQ7): below the threshold; pKd (PTPN13_1, Q12923): below the threshold; pKd (SNTG2, Q9NY99): below the threshold; pKd (TIAM2, Q8IVF5): 4.12; pKd (TJP1_3, Q07157): below the threshold
EKKTLIGIKL [GOT1L1, Q8NHS2] | below the threshold | below the threshold | below the threshold | below the threshold | below the threshold | below the threshold | below the threshold | below the threshold | below the threshold | below the threshold | below the threshold | below the threshold | below the threshold | below the threshold | below the threshold | below the threshold | below the threshold | below the threshold | 3.64 | 4.78 | pKd (PARD3B_1, Q8TEW8): 4.74; pKd (PARD3_3, Q8TEW0): below the threshold; pKd (PDZRN3_1, Q9UPQ7): below the threshold; pKd (PTPN13_1, Q12923): 3.63; pKd (SNTG2, Q9NY99): below the threshold; pKd (TIAM2, Q8IVF5): 3.57; pKd (TJP1_3, Q07157): below the threshold
